Patent publication US5728677, “Methods of inhibiting T-cell dependent proliferation of peripheral blood lymphocytes using the CD2-binding domain of lymphocyte function associated antigen 3” (Biogen, Inc., dated 1998)

Columns and labels:
CD2 [1] = biological target: T1, CD2 (human, UniProt P06729)
CD2 [2] = biological target: T1, CD2; remark: listed apart in the source
Target sequence in this assay (P06729 25-351): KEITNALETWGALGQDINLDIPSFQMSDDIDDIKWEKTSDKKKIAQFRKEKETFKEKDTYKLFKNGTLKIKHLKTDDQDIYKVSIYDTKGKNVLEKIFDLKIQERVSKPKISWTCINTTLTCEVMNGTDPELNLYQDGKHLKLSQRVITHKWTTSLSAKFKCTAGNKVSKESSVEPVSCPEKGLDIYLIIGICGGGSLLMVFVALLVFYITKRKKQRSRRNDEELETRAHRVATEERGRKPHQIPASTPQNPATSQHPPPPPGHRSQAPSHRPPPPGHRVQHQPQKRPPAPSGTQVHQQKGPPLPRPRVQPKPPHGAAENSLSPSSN

CD2 [3] = biological target: T1, CD2; assay: Jurkat cell binding assay, microscopy
Experimental: M57/CHO cells, P24/CHO cells and CHO cells (1 ×10^5) were added to separate wells of a 6-well plate (Corning) and washed twice with RPMI Complete Medium. Jurkat cells (CD2^+), obtained as a gift from Dr. Timothy Springer (Dana Farber Cancer Inst., Boston, Mass.) were washed three times with a solution of RPMI, 10% FCS, 4 mM L-glutamine, and then 5 ×10^6 cells were added to each well and incubated for 4 hours at 0° C. Cells were then washed gently three times with RPMI and examined under the microscope at 40X and 100X magnification for cell-cell binding.
The M100/CHO, M101/CHO and M102/CHO transfectants were subjected to a Jurkat cell binding assay, as described in Example 4 above.

Row | Molecule | inhibition of PHA dependent PBL proliferation, optimal PHA (CD2 [1]) [%] | inhibition of PHA dependent PBL proliferation, suboptimal PHA (0.1 µg/ml) (CD2 [2]) [%] | binding result (CD2 [3])
1 | LFA3TIP (Fc fusion) | 41 | 70 | –
2 | anti-CD2 monoclonal antibody TS2/18 | 20 | – | –
3 | M101 deletion mutant of LFA-3 (ligand) FSQQIYGVVYGNVTFHVPSNVPLKEVLWKKQKDKVAELENSEFRAFSSFKNRVYLDTVSGSLTIYNLTSSWDCPMEQCKRNSTSIYFKMENDLPQKIQCTLSNPLFNTTSSIILTTCIPSSGHSRHRYALIPIPLAVITTCIVLYMNGILKCDRKPDRTNSN | – | – | binds
4 | M102 deletion mutant of LFA-3 (ligand) FSQQIYGVVYGNVTFHVPSNVPLKEVLWKKQKDKVAELENSEFRAFSSFKNRVYLDTVSGSLTIYNLTSSDEDEYEMESPNITDTMKFFLYVLESLPSPTLTCALTNGSIEVQCMIPEHYNSHRGLIMYSSGHSRHRYALIPIPLAVITTCIVLYMNGILKCDRKPDRTNSN | – | – | binds

Results, then the molecule that gave them:

Row | inhibition of PHA dependent PBL proliferation, optimal PHA (CD2 [1]) [%] | inhibition of PHA dependent PBL proliferation, suboptimal PHA (0.1 µg/ml) (CD2 [2]) [%] | binding result (CD2 [3]) | Molecule
5 | – | – | no binding | M57 deletion mutant of LFA-3 (ligand) FSQQIYGVVYGNVTFHVPSNVPLKEVLWKKQKDKVAELENSEFRAFSSFKSLTIYNLTSSDEDEYEMESPNITDTMKFFLYVLESLPSPTLTCALTNGSIEVQCMIPEHYNSHRGLIMYSWDCPMEQCKRNSTSIYFKMENDLPQKIQCTLSNPLFNTTSSIILTTCIPSSGHSRHRYALIPIPLAVITTCIVLYMNGILKCDRKPDRTNSN
6 | – | – | no binding | M100 deletion mutant of LFA-3 (ligand) FSQQIYGVVYDEDEYEMESPNITDTMKFFLYVLESLPSPTLTCALTNGSIEVQCMIPEHYNSHRGLIMYSWDCPMEQCKRNSTSIYFKMENDLPQKIQCTLSNPLFNTTSSIILTTCIPSSGHSRHRYALIPIPLAVITTCIVLYMNGILKCDRKPDRTNSN
